According to publication PMC2782912:

What was measured:
[1] = molecular target: HIV-1 capsid protein C-terminal domain, CA-CTD (Met144-Leu231) (HIV-1); assay: NMR titration
[2] = molecular target: HIV-1 capsid protein CA (Human immunodeficiency virus 1) (UniProt O93182); conditions: cited from earlier work

HIV-1 capsid protein CA, sequence (O93182 133-363): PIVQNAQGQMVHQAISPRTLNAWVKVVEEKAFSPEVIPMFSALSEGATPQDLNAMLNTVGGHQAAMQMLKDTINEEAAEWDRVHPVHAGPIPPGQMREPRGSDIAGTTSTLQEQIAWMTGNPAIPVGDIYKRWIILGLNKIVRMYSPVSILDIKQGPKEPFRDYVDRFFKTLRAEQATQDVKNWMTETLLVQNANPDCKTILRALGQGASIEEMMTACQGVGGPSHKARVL

Substance | Kd [1] | Kd [2]
HIV-1 capsid protein C-terminal domain, CA-CTD (Met144-Leu231) (domain or fragment) | 9.8 µM | 
HIV-1 capsid protein CA (from UniProt O93182) |  | 18 µM
